Measurements reported in paper PMC5947528.

Molecular target: E. coli 3'-phosphoadenosine 5'-phosphosulfate (PAPS) reductase (E. coli) (UniProt P17854)
Sequence of UniProt P17854 (P17854 whole entry): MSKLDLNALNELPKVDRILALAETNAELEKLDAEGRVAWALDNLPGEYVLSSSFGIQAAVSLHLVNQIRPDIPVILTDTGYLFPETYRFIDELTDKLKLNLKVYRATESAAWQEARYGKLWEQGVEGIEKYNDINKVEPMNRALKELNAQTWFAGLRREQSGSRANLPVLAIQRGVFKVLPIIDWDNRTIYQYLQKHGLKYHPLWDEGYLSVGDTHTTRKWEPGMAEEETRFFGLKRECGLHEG

B1: Arabidopsis thaliana TrxH2 (enzyme)
chain: MGGALSTVFGSGEDATAAGTESEPSRVLKFSSSARWQLHFNEIKESNKLLVVDFSASWCGPCRMIEPAIHAMADKFNDVDFVKLDVDELPDVAKEFNVTAMPTFVLVKRGKEIERIIGAKKDELEKKVSKLRA
**Q.** How did the Km of PR for the redoxin as electron donor (PAPS reductase assay) turn out when B1 was run?
**A.** 43.1 µM

**Q.** And the kcat Km^-1 of PR with the redoxin, percent of that with E. coli Trx1?
**A.** 23%

B2: Arabidopsis thaliana TrxH4 (enzyme)
chain: MAAEEGQVIGCHTNDVWTVQLDKAKESNKLIVIDFTASWCPPCRMIAPIFNDLAKKFMSSAIFFKVDVDELQSVAKEFGVEAMPTFVFIKAGEVVDKLVGANKEDLQAKIVKHTGVTTA
**Q.** Which Km of PR for the redoxin as electron donor (PAPS reductase assay) does the source give for B2 here?
**A.** 26.1 µM

B3: Arabidopsis thaliana TrxH1 (enzyme)
chain: MASEEGQVIACHTVETWNEQLQKANESKTLVVVDFTASWCGPCRFIAPFFADLAKKLPNVLFLKVDTDELKSVASDWAIQAMPTFMFLKEGKILDKVVGAKKDELQSTIAKHLA
**Q.** How did the kcat Km^-1 of PR with the redoxin, percent of that with E. coli Trx1 turn out when B3 was run?
**A.** 18%

B4: human Trx1 (enzyme)
chain: MVKQIESKTAFQEALDAAGDKLVVVDFSATWCGPCKMIKPFFHSLSEKYSNVIFLEVDVDDCQDVASECEVKCMPTFQFFKKGQKVGEFSGANKEKLEATINELV
**Q.** With B4 as the binder, how does the kcat Km^-1 of PR with the redoxin, percent of that with E. coli Trx1 read?
**A.** 59%

B5: Arabidopsis thaliana TrxH3 (enzyme)
chain: MAAEGEVIACHTVEDWTEKLKAANESKKLIVIDFTATWCPPCRFIAPVFADLAKKHLDVVFFKVDVDELNTVAEEFKVQAMPTFIFMKEGEIKETVVGAAKEEIIANLEKHKTVVAAA
**Q.** B5 was tested. Which Km of PR for the redoxin as electron donor (PAPS reductase assay) did it give?
**A.** 17.8 µM

**Q.** What about the Vmax of PR with the redoxin as electron donor (PAPS reductase assay) of the same binder?
**A.** 13.2 U mg^-1

**Q.** And the kcat Km^-1 of PR with the redoxin, percent of that with E. coli Trx1?
**A.** 154%
